We go through one molecule from patent US20220332804A1 (CSL INNOVATION, published 2022).

Assay in all cases: SPR, KD relative to WT C2;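 note: biacore SPR at 37 °C, anti-C2 mAbs captured on anti-human IgG chips with alanine or serine point mutants of C2 as analyte, KD from 1:1 fit compared with wild-type C2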
For one assay, the target named is T1, human C2 E450A (human, UniProt P06681 21-752).
T1 sequence: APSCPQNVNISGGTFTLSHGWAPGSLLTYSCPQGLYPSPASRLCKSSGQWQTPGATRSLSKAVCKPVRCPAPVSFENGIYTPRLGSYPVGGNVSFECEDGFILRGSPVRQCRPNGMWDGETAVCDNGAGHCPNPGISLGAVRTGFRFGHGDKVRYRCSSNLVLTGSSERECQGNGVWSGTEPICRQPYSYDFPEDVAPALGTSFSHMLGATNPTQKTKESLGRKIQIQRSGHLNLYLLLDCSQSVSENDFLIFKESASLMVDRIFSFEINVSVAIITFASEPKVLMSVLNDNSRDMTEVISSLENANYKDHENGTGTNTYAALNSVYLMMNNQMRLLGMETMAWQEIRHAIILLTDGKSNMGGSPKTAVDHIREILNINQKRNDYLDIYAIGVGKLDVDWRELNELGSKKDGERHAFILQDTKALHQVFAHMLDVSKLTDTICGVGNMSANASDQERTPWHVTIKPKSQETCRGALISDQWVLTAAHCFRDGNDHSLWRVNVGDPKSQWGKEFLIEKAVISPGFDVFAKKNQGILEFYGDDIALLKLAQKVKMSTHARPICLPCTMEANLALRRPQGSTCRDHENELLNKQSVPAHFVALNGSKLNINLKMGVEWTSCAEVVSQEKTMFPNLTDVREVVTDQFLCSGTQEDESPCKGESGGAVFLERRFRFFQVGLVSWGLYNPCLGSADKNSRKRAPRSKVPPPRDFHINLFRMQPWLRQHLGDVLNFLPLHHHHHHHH

The target of a further assay is T2, human C2 R434A (human, UniProt P06681 21-752).
T2 sequence: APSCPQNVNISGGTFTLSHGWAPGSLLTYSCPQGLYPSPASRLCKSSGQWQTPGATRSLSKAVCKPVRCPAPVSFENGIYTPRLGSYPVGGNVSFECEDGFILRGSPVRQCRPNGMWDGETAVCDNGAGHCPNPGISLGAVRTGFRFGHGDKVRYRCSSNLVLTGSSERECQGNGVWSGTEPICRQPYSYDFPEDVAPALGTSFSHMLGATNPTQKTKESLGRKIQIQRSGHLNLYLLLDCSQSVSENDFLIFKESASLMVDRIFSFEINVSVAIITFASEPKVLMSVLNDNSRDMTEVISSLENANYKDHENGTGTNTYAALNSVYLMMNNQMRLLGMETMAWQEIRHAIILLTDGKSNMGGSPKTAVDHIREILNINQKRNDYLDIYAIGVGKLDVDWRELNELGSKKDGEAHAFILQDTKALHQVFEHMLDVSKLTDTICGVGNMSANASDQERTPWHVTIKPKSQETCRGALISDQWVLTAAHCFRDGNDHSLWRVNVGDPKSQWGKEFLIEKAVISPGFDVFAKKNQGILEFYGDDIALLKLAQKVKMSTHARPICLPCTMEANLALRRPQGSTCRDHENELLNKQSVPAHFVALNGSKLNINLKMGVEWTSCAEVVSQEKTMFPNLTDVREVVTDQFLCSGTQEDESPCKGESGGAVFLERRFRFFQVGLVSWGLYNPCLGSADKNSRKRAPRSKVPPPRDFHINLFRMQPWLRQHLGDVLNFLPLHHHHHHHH

In another assay the target is T3, human C2 T442A (human, UniProt P06681 21-752).
T3 sequence: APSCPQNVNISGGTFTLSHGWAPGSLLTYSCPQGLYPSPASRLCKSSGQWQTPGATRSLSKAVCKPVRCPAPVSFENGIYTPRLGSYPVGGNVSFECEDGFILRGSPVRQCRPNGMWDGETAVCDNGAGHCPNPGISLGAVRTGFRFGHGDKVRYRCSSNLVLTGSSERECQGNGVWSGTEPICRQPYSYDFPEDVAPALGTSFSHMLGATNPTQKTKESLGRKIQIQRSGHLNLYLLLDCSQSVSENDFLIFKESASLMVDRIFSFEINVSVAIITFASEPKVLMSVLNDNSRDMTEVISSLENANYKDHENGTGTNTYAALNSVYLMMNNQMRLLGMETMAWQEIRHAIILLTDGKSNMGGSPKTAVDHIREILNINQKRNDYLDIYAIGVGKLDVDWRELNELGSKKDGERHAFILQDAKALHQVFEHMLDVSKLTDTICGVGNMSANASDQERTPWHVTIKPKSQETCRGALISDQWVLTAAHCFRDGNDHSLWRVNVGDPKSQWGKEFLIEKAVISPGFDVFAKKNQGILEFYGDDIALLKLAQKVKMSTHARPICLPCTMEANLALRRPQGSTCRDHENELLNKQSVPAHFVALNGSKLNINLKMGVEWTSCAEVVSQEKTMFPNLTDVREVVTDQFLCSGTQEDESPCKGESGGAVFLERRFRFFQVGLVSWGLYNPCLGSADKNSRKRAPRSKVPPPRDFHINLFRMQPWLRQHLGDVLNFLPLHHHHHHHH

The target of another assay is T4, human C2 H446A (human, UniProt P06681 21-752).
T4 sequence: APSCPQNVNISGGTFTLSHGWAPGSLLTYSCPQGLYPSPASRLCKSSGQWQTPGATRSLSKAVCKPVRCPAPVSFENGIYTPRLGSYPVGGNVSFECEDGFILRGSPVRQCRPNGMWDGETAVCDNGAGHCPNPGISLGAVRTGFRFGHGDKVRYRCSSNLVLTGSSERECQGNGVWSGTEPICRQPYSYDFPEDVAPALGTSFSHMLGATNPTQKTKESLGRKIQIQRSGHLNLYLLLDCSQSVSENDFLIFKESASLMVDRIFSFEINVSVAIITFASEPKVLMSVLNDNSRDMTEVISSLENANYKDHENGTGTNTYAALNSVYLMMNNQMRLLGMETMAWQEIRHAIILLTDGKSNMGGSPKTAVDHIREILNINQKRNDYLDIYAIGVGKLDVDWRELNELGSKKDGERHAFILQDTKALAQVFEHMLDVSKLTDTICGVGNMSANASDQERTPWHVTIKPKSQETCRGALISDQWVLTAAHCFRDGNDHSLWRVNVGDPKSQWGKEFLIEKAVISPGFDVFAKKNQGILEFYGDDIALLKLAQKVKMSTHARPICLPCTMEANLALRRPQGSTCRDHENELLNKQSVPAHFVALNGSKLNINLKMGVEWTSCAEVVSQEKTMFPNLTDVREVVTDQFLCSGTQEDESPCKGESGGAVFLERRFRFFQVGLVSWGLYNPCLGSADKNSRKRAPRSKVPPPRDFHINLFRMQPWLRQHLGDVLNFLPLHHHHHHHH

Description for human C2 E450A: (§1) Surface plasmon resonance (SPR, Biacore) was used for all binding affinity analyses. In brief, goat anti-human IgG was directly immobilised onto the carboxymethyl dextran surface of CM5 sensorchips to approximately 12,000 RU using standard NHS/EDC chemistry at pH 5. The immobilised antibody surface was pre-conditioned with ten injections of polyclonal human IgG (Privigen 60 s) prepared at 1 μg/mL. Ligands (anti-C2 mAbs) were captured at the beginning of each cycle as described below. An adjacent spot or flow cell in which only Polyclonal IgG was capture was used as a reference surface. The goat anti-human IgG Fc antibody surface was regenerate in 100 mM H3PO4, injected for 45 seconds at the end of each cycle. Experiments were performed at 37° C. and the flow rate of each experiment was kept constant at 30 μL/min.
(§2) Sensogram data was double-referenced against a reference anti-IgG surface (i.e. minus anti-C2 mAb) and blank buffer injections obtained within each experiment. The binding data was fit to 1:1 (kinetic or steady-state) model using local Rmax and null refraction index (RI=0) when appropriate. Buffers and solutions were filtered (0.22 μm) prior to use.
Description for human C2 H446A: as §1, §2
Description for human C2 R434A: as §1, §2
Description for human C2 T442A: as §1, §2

B1: RF16-242 (antibody, human IgG4 S228P, lambda, V domains shown)
VH: EVQLLQSGAEVKKPGESLKISCKGSGYSFTSYWIGWVRQMPGKGLEWMGIIYPGDSDTRYSPSFQGQVTISADKSISTAYLQWSSLKASDTAMYYCARRGHYGDYFDYWGQGTLVTVSS
VL: SYELTQPPSVSVSPGQTARITCSGDALPKKYAYWYHQKSGQAPVLVIYEDRRRPSEIPERFSGSSSGTMATLTITGAQVEDEGVYFCYSRDRAGNQRVFGGGTQLTVLG
notes: pH-dependent anti-C2 antibody from a phage display library
Turning to B1, the Fold diff stood at 3 fold in the assay with human C2 E450A, 14 fold with human C2 R434A, 3 fold with human C2 T442A and 2 fold in the assay with human C2 H446A.
